Reference: US10704030B2, “P450-BM3 variants with improved activity” (Codexis, Inc., priority 2015, dated 2020)

Legend:
Assay type in all cases: biochemical
[1] = Validation of generalist properties: oxidation of imatinib by lyophilized P450-BM3 variant, UPLC-MS; settings: [Imatinib] = 1 mM
How it was run: (§1)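 Lyophilized lysate of E. coli-expressed P450-BM3 variant (stock standardized to 12 μM heme) was incubated 24 h at 30 °C with 1 or 2 mM substrate, 1.0 mM NADP+, 25 mM glucose, 0.5 mg/mL glucose dehydrogenase and 5% DMSO in 100 mM potassium phosphate. Acetonitrile-quenched samples were analyzed by UPLC-MS (positive ESI).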

[2] = Validation of generalist properties: oxidation of diclofenac by lyophilized P450-BM3 variant, UPLC-MS; settings: [Diclofenac] = 1 mM
How it was run: as §1

[3] = Validation of generalist properties: oxidation of gefitinib by lyophilized P450-BM3 variant, UPLC-MS; settings: [Gefitinib] = 1 mM
How it was run: as §1

[4] = Validation of generalist properties over the four substrates screened
Description: For the production of lyophilized protein powders, LB agar plates supplemented with chloramphenicol (30 μg/mL) were streaked with E. coli containing a desired B. megaterium P450-BM3 variant in an IPTG-inducible vector. The plates were grown at 37° C. for 16 hrs before single clones were selected to inoculate a 15 mL Falcon™ tube (Fisher) containing TB media (3 mL) supplemented with chloramphenicol (30 μg/mL). The tube was shaken at 200 rpm, 30° C., and 85% humidity for 20-24 h to grow the cultures to saturation. Then, 2.5 mL of the overnight culture was used to inoculate sterile 1 L flasks containing TB medium (250 mL) supplemented with chloramphenicol (30 μg/mL), trace element solution (as described above), and 0.05 g/L ammonium iron (III) citrate. After being shaken at 250 rpm, 30° C., and 85% humidity to an OD600 of 0.8-1.2, P450 expression was induced by addition of IPTG (500 uM) and the heme precursor 5-aminolevulinic acid (5-ALA) to a final concentration of 500 uM. The cultures were grown for additional 20-24 hours and centrifuged in pre-weighed 250 mL centrifuge bottles for 20 minutes at 4000 rpm, 4° C. The supernatants were discarded, and the centrifuge bottles containing cell pellets were weighed. The pellets were resuspended in 50 mM potassium phosphate buffer with 2 mM DTT, pH 8.0 (5 mL of buffer per gram of cell pellet). The cells were lysed using a microfluidizer homogenizer, and the suspensions of cells and lysate were collected in sterile 50 mL centrifuge tubes. The samples were centrifuged for 30 minutes at 10,000 rpm, 4° C. The clarified lysate was collected into a plastic petri plate and frozen at −80° C. prior to lyophilization. The enzyme-containing lysates were lyophilized using standard methods known in the art.
Enzyme stocks (˜12 μM) were prepared by dissolving ˜20 mg of each enzyme in 100 mM potassium phosphate buffer, pH 8.0 (1 mL). The concentration of each enzyme stock solution was determined by the UV-visible absorption spectroscopy (after centrifugation to remove particulates) and diluted to standardize at 12 μM heme protein. Substrate solutions were prepared by dissolving each substrate in DMSO to reach a final concentration of 20 mM or 40 mM. Reaction mix (235 μL) followed by enzyme solution (50 μL) was added to the plates. The substrate stock solution was added to the enzyme solutions (15 μL at the two different concentrations). Each reaction contained 100 mM potassium phosphate, 1.0 mM NADP+, 25 mM glucose, 0.5 mg/mL glucose dehydrogenase, 5% DMSO and substrate at 1 or 2 mM. Loratadine, imatinib, and gefitinib (See, FIG. 1) were selected as substrates in addition to diclofenac to validate improved BM3 variants. The reactions were shaken at 450 rpm at 30° C. over 24 hours. All reactions were diluted with acetonitrile to a final concentration of 0.5 mM substrate. The plates were then centrifuged at 3,000 g for 1 hour at 20° C. The supernatant was diluted 1:1 with acetonitrile, filtered using a 0.4 micron filter, and analyzed by UPLC-MS.
For UPLC-MS analysis, the quenched and filtered reactions were transferred to 96-well HTP plates for analysis by UPLC on a Waters Acquity H-class system equipped with an autosampler. 1 uL of quenched sample was injected onto an Acquity UPLC HSS T3 column, 100 Å, (1.8 um; 2.1×100 mm). […] Column eluent was monitored by PDA (200-600 nm) prior to MS analysis in positive ESI mode (desolvation temperature 350° C., 3.25 kV spray voltage, cone voltage 25V). […]

[5] = Validation of generalist properties: oxidation of loratadine by lyophilized P450-BM3 variant, UPLC-MS; settings: [Loratadine] = 1 mM
How it was run: as §1

[6] = TON = [substrate]*% conversion/[P450]
[7] = fold improvement over parent MCYP-1.2-A07

B1: Variant 15: P450-BM3 variant of SEQ ID NO: 4: K32R; C48S; I95P; L216Y; D232H; E349T; M491A; N574T; T577A; E619D; D722S (protein)
chain: MTIKEMPQPKTFGELKNLPLLNTDKPVQALMRIADELGEIFKFEAPGSVTRYLSSQRLIKEACDESRFDKNLSQALKFARDFAGDGLVTSWTHEPNWKKAHNILLPSFSQQAMKGYHAMMVDIAVQLVQKWERLNADEHIEVSEDMTRLTLDTIGLCGFNYRFNSFYRDQPHPFIISMVRALDEVMNKLQRANPDDPAYDENKRQCQEDIKVMNDYVDKIIADRKARGEQSHDLLTQMLNGKDPETGEPLDDGNISYQIITFLIAGHETTSGLLSFALYFLVKNPHVLQKVAEEAARVLVDPVPSYKQVKQLKYVGMVLNEALRLWPTAPAFSLYAKEDTVLGGEYPLTKGDEVMVLIPQLHRDKTIWGDDVEEFRPERFENPSAIPQHAFKPFGNGQRACIGQQFALHEATLVLGMMLKHFDFEDHTNYELDIKETLTLKPEGFVVKAKSKKIPLGGIPSPSTEQSAKKVRKKAENAHNTPLLVLYGSNAGTAEGTARDLADIAMSKGFAPQVATLDSHAGNLPREGAVLIVTASYNGHPPDNAKQFVDWLDQASADEVKGVRYSVFGCGDKTWAATYQKVPAFIDETLAAKGAENIADRGEADASDDFEGTYEEWRDHMWSDVAAYFNLDIENSEDNKSTLSLQFVDSAADMPLAKMHGAFSTNVVASKELQQPGSARSTRHLEIELPKEASYQEGDHLGVIPRNYEGIVNRVTARFGLSASQQIRLEAEEEKLAHLPLAKTVSVEELLQYVELQDPVTRTQLRAMAAKTVCPPHKVELEALLEKQAYKEQVLAKRLTMLELLEKYPACEMKFSEFIALLPSIRPRYYSISSSPRVDEKQASITVSVVSGEAWSGYGEYKGIASNYLAELQEGDTITCFISTPQSEFTLPKDPETPLIMVGPGTGVAPFRGFVQARKQLKEQGQSLGEAHLYFGCRSPHEDYLYQEELENAQSEGIITLHTAFSRMPNQPKTYVQHVMEQDGKKLIELLDQGAHFYICGDGSQMAPAVEATLMKSYADVHQVSEADARLWLQQLEEKGRYAKDVWAG
modifications: P450_BM3
notes: C48S; I95P; L216Y; D232H; E349T; M491A; N574T; T577A; E619D; D722S
% Conv. [1]: ++++ (15.01-20.00) | TON [1, 6]: ‡‡‡ (5001-10000) | FIOPC (A07) [1, 7]: ** (3.01-5.0) | % Conv. [2]: ++++ (15.01-20.00) | TON [2, 6]: ‡‡‡‡ (10000-50000) | FIOPC (A07) [2, 7]: * (0.0-3.0) | % Conv. [3]: ++++ (15.01-20.00) | TON [3, 6]: ‡‡‡‡ (10000-50000) | FIOPC (A07) [3, 7]: **** (10.01-15.00) | performance (% conversion at 1 mM substrate loading) over the substrates screened, in words [4]: moderate activity for all four substrates | % Conv. [5]: ++++ (15.01-20.00) | TON [5, 6]: ‡‡‡‡ (10000-50000) | FIOPC (A07) [5, 7]: * (0.0-3.0)
